Laboratory results published in patent publication US20100040606A1.

Molecular target: RSV protein F (fusion glycoprotein), recombinant or purified (human respiratory syncytial virus, strain not stated) (UniProt P03420)
Experiment: SPR (Biacore 3000), Fab over immobilised recombinant antigen

Fab fragment derived from commercially available Palivizumab (Synagis)
Kd: 3.78 nM | koff: 0.000757 s⁻¹ | kon: 200000 M⁻¹ s⁻¹ | t1/2: 15 min
